Reference: patent US20160129078A1, “Rhomboid Proteins and Uses Thereof” (Queen's University at Kingston, priority 2014, published 2016)

Key:
E. coli = test: Colony formation of At1g74130-expressing E. coli on agar with increasing ampicillin; type: cell-based, Escherichia coli; settings: protein expressed in E. coli JM109(DE3) from pET20b; solid agar media; susceptibility at higher concentrations
Protocol: Introduction and expression of At1g74130 was tested in E. coli, by subcloning the corresponding cDNA sequence into a T7 promoter-containing plasmid vector (pET20b) and JM109(DE3), a bacterial strain commonly used for expressing foreign proteins. Two alternative splice variants of At1g74130 were derived by RT-PCR cloning and tested along with the full version of At1g74130, also derived by RT-PCR cloning (see, e.g., FIGS. 3, 4, and 5). The alternative splice variants designated 6/7 and 7/8 are shown in FIGS. 1C and 1D, respectively. A similar procedure was used to express the At1g25290 and UBAC2 variants (see FIGS. 6, 7, and 8).
Alterations to protein translocation were investigated using the plasmid-borne multicopy gene, β-lactamase. The level of β-lactamase is a sensitive monitor of protein translocation and is translocated into the periplasm, where it detoxifies the antibiotic ampicillin, thereby conferring ampicillin-resistance to cells. Because the level of antibiotic resistance conferred also reflects the level of protein transport activity, the level of ampicillin resistance was determined for At1g74130 expressing cells and compared to that of control vector-containing cells on solid agar media containing increasing concentrations of ampicillin. […]

Pseudomonas aeruginosa = test: Enhancement of peptide delivery into Pseudomonas aeruginosa; type: cell-based; settings: nine amino acid peptides targeting Type II secretion pseudopilin subunit
From the text: With the Pseudomonas assay system described above, it was also possible to assess the ability and the utility of At1g74130 protein variants in the delivery of other peptides into cells. The assays were designed in the same manner as above to determine if peptide delivery can be enhanced or facilitated by rhomboids. The other peptides used were designed to inhibit protein secretion, in this case, lipases. The peptides used in these assays were nine amino acids long and targeted a specific region of one protein subunit of the Type II secretion machinery pseudopilin. The inhibitory actions of this nine amino acid peptide are due to interactions with the target region of the protein subunit. If peptide delivery was facilitated or enhanced by rhomboids, outcomes may be observed by changes in cell/colony growth (Pseudomonas) on the minimal media-olive oil plates. Such changes in growth would reflect changes in lipase secretion, which is needed for breaking down olive oil so that the released carbon can be used for cell growth.
The delivery of the M variant further into the cell releases the impairment and allows growth to resume (i.e., the assay with elution buffer, DMSO, and M). […]

[1] = test system: MDA-MB-231 breast cancer cells; test: MTT viability assay, sensitization to lapatinib; type: cell-based, human; settings: co-treatment with lapatinib; most prominent at 10 or 15 uM after 48 and 72 hours; 5 or 10 ug protein
From the text: Experiments were thus conducted to assess the ability of At1g74130 proteins or variants to enhance the sensitivity of two breast cancer cell lines to the chemotherapeutic drug lapatinib. The breast cancer cell lines selected for these assays were MDA-MB-231 and MDA-MB-468, two cell lines used frequently in cancer research. Any impact on the cells' ability to pump or transport drugs (in and out) may alter the efficacy a chemotherapeutic drug, e.g., by enhancing levels of cell death) or by increasing effectiveness at lower dosage levels. The design of the breast cancer cell assays was similar to that used for bacteria in the above examples, results, and figures. In these studies, the widely used MTT (methyl thiazolyl diphenyl-tetrazolium bromide) viability assay procedure was used to assess any impact exerted by At1g74130 variant S (see, for example, the MTT procedure described by Nagaria, T. S., et al., Flavopiridol synergizes with sorafenib to induce cytotoxicity and potentiate antitumorigenic activity in EGFR/HER-2 and mutant RAS/RAF breast cancer model systems, Neoplasia, 15:939-951, 2013).
Cells were cultured at 37° C. in 96-well plates (10,000 cells in 100 ul media per well) for 24-48 hours to near confluency. […] The assays were then read at 570 nm using a microplate scanning spectrophotometer. […]

Molecule | ampicillin concentration at which expressing cells form colonies (E. coli) [mg/mL] | peptide delivery into cells (Pseudomonas aeruginosa) | increase in level of cell death [1] [%]
At1g74130 M: 7/8 M-form splice variant of Arabidopsis At1g74130 rhomboid protein (protein, listed as Arabidopsis thaliana) MHAIFCRRVAVGCSSPQLTKLVTKQASQSRHSLSHLLPFDLSSRFVPPYVVSRSARVHGFFAGKLGNTNLKLKFGNVMESRAGFFSSELPSHGFESGGFTGFQKRGWKSWINGANGVVFGLVIANAAVFTMWRVLGKDNMWMVKNFMLSRYSFMTGRIHTLITSGFSHVGATHIILNMMGLCYFGARIARSFGPRYLLKLYFAGALGGSVFFLSSHALSVISLKGQRVVPKDQLKVPIGKLGANGPVYAITLLDMLLYPKVTTYFGLMLRVPVFAGIYSLGLNIIKMLEVCMMGKTTIP | 1.5 | facilitation and/or enhancement of peptide delivery | 
At1g74130 S: 6/7 S-form splice variant of Arabidopsis At1g74130 rhomboid protein (protein, listed as Arabidopsis thaliana) MHAIFCRRVAVGCSSPQLTKLVTKQASQSRHSLSHLLPFDLSSRFVPPYVVSRSARVHGFFAGKLGNTNLKLKFGNVMESRAGFFSSELPSHGFESGGFTGFQKRGWKSWINGANGVVFGLVIANAAVFTMWRVLGKDNMWMVKNFMLSRYSFMTGRIHTLITSGFSHVGATHIILNMMGLCYFGARIARSFGPRYLLKLYFAGALGGSVFFLSSHALSVISLKGQRVVPKDQLKVPIGKLGANGPVYAITLLDMLLYPKVTTYFGLMLRVPVFAVRESIA |  |  | 20 to 40
